Results taken from patent publication US20240132622A1 (Bristol-Myers Squibb, published 2024).

How the values were obtained:
mouse PAD4 [1] = biological target: T1, mouse PAD4 (mouse, UniProt Q9Z183 1-666); assay: cell-based or functional assay
mouse PAD4 [2] = biological target: T1, mouse PAD4; assay: SPR 37 C, antibody on anti-murine capture surface, PAD4 analyte, 2 mM CaCl2
Description: SPR Methods. In general, SPR methods were as described in Example 3 above with the following modifications. An anti-murine capture surface was used that was prepared by immobilizing anti-murine capture antibody (Cytiva catalog #BR100838) onto flow cells of a CM5 biosensor following the manufacturer's amine coupling protocol (Cytiva catalog #BR-1006-33). SPR experiments were conducted at 37° C. using HBS-P (150 mM NaCl, 10 mM HEPES, pH 7.6, 0.05% Tween-20) (TEKNOVA catalog #H8032) with additional 500 mM NaCl and 2 mM CaCl₂) as running buffer. Several concentrations of PAD4, from 0.8 nM to 150 nM were prepared using the running buffer. The association and dissociation of the antibodies with PAD4 were measured. Two 90 second injections of 10 mM glycine pH 1.7 was used to regenerate the anti-murine capture surface.

recombinant human PAD4 [3] = biological target: T2, recombinant human PAD4 (human, UniProt Q9UM07 1-663); assay: cell-based or functional assay
T2 sequence (Q9UM07 whole entry): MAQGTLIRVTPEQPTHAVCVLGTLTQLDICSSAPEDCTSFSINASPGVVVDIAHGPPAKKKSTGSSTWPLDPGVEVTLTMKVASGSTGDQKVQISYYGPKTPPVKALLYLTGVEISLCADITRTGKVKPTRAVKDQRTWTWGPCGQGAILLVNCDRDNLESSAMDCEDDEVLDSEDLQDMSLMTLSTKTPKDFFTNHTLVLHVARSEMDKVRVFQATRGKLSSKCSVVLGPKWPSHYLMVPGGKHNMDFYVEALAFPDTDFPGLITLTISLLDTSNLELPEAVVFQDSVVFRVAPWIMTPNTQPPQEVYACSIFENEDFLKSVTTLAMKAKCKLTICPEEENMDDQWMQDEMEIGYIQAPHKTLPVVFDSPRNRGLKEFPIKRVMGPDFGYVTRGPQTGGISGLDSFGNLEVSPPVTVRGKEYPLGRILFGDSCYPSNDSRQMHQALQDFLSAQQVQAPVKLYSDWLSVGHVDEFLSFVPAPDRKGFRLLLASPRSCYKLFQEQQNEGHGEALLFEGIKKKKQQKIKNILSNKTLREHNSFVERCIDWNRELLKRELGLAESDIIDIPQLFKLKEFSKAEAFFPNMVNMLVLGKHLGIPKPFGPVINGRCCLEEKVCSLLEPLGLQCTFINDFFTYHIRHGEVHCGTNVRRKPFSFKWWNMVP

recombinant human PAD4 [4] = biological target: T2, recombinant human PAD4; assay: cell-based or functional assay; remark: listed apart in the source
[5] = biological target: T3, recombinant human GST-PAD4 fusion protein (human, UniProt Q9UM07 1-663); assay: BLI (BLITZ), GST-PAD4 on anti-GST biosensor
T3 construct: not shown: GST tag
Description: Affinity testing methods. Affinity of each antibody clone for a GST-PAD4 fusion protein was determined by Biolayer Interferometry (BLI) using a BLITZ instrument (Forte Bio, Menlo Park, California), using a biosensor chip (Anti-GST chip, Forte Bio, Cat. No. 18-5096). The biosensor was treated with citrate buffer, PBS, or PBS/Ca for 15 seconds; recombinant human GST-PAD4 was added on a drop holder for 80 seconds to prime the biosensor with PAD4; antibody was then added on the drop holder for 80 seconds to allow binding between antibody and the PAD4; PBS/PBS-Ca was added on the drop holder for 60 seconds to remove unbound antibody. The association rate constants, kₒₙ, dissociation rate constants, koff, and equilibrium dissociation constants, KD, were determined using BLITZ Pro Software, version 1.2.0.49.

recombinant human PAD4 [6] = biological target: T2, recombinant human PAD4; assay: SPR 37 C, captured antibody, PAD4 analyte, 2 mM CaCl2
Description: For SPR measurements, either an anti-human capture surface or Protein A surface (Cytiva catalog #29127555) was used. Anti-human capture surface was prepared by immobilizing anti-human capture antibody (Cytiva catalog #29234600) onto flow cells of a CM5 or CM4 biosensor following the manufacturer's amine coupling protocol (Cytiva catalog #BR-1006-33). SPR experiments were conducted at 37° C. using HBS-P (150 mM NaCl, 10 mM HEPES, pH 7.6, 0.05% Tween-20) (TEKNOVA catalog #H8032) with additional 150 mM NaCl and 1 mM or 2 mM CaCl₂) (see Table 2) or 2 mM EDTA (see Table 3) as running buffer. Antibodies were diluted to 1.5 μg/mL in the running buffer, and were captured across active biosensor flow cells at 10 μL/min for 15 to 30 seconds. […] The association and dissociation of the antibodies with PAD4 were measured. One 30 second injection followed by one 15 second injection of 10 mM glycine pH 1.5 was used to regenerate the Protein A capture surface between assay cycles. For anti-human capture surface, two 30 second injections of 3 M MgCl₂ was used for regeneration. SPR measurements for mAb20 and mAb 13 SPR were done in the presence of 2 mM CaCl₂). The remaining antibodies were tested in the presence of 1 mM CaCl₂).
Rate constants kₒₙ and koff were derived from reference flow cell- and 0 nM blank-subtracted sensorgrams, and were fit to a 1:1 binding model in Biacore® Insight Evaluation software version 3.0.12.15655. Deviations from 1:1 binding model were observed, which may be caused by increased dimerization of PAD4 at higher concentrations. The equilibrium dissociation constant, KD, was calculated as the ratio of rate constants koff/kₒₙ for each PAD4 antibody. For those antibodies that were tested in multiple SPR experiments, the average value and standard deviation from two or three separate experiments are listed in Tables 2 and 3.

N-His-TVMV-PAD4 = biological target: T4, N-His-TVMV-PAD4 (human, UniProt Q9UM07 1-663); assay: complex purified by size exclusion chromatography; cryo-EM
T4 construct: E. coli expressed; used for the cryo-EM complex with clone 13 Fab, seen as a 2:2 assembly; also called Human PAD4 (1-663); full-length PAD4 construct with cleavable N-terminal his tag
T4 chain: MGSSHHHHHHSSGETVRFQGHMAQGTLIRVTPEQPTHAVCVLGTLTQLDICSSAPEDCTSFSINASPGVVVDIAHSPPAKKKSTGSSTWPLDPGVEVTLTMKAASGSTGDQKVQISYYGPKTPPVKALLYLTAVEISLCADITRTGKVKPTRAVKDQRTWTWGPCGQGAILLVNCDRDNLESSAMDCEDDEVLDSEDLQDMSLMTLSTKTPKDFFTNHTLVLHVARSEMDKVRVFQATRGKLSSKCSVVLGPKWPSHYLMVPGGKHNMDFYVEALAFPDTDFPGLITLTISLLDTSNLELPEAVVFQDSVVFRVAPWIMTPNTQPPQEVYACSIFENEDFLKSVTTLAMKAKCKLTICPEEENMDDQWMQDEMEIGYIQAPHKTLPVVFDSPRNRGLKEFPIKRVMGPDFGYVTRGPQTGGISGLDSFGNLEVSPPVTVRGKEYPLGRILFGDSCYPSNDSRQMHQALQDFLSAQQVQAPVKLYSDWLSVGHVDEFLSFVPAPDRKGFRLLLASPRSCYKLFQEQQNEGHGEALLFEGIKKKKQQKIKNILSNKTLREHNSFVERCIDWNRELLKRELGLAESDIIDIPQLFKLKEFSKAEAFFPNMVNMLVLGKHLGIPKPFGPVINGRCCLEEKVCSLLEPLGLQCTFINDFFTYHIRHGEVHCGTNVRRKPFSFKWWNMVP

T1 sequence (Q9Z183 whole entry): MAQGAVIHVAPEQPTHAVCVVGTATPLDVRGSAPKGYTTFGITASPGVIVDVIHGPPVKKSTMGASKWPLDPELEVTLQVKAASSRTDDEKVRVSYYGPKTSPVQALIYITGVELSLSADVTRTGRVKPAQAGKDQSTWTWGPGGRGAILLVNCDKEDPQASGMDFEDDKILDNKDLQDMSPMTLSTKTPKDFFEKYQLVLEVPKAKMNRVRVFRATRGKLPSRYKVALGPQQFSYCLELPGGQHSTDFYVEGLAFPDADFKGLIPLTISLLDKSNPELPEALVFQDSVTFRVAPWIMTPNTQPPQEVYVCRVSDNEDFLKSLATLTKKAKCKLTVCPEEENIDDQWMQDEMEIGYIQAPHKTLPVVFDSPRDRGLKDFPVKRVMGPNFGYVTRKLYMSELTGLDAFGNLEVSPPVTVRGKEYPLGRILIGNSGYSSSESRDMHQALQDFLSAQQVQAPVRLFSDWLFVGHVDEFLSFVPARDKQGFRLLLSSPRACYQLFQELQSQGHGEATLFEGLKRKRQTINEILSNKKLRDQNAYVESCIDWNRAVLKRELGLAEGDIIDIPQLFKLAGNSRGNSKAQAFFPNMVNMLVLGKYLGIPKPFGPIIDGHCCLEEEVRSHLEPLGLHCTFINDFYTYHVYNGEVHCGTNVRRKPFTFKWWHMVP

B1: mumAb (antibody, mouse IgG1, kappa, V domains shown)
VH: EVQLQQPGAELVKPGASVKLSCKASDHTFTTYWIHWVKQRPGRGLEWIGRIGPNSGGSKYNEKFRTKATLTVDKPSSTAYMQLSSLKSEDSAVYFCAFSNYLDYLDYWGQGTTLTVSS
VL: DIVLTQSPASLAVSLGQRATISCKASQSVDHDGEGYMNWYQQKPGQPPKLLIYAASNLESGIPARFSGSGSGTDFTLNIHPVEEEDAATYYCQQINEDPYTFGGGTKLEIKR
notes: Formatted as mIgG1-D265A; also called anti-murine PAD4 mAb; mouse anti-mPAD4 mumAb antibody
Mouse PAD4 [1]
  IC50, mPAD4 citrullination of peptide …, RapidFire MS, 50 nM mPAD4: 13.2 nM
Mouse PAD4 [2]
  Kd: 0.7 nM
  koff: 0.0002 s⁻¹
  kon: 290000 M⁻¹ s⁻¹

B2: clone 13 (mAb13) (antibody, V domains shown)
VH: EVLLQQSGAELVKPGASVRLSCTSSDFNIKDHFIHWVKQRTEQGLEWIGRIDPEDDETKYAPKFQDKVTITADTSSNTAYLQLSSLTSEDTAVFYCAGYGNYEGAMDYWGQGTSVTVSS
VL: DIVLTQSPTSLGVSPGQRATLSCRASENVNNYGIGFMNWFQQKPGQPPKLLIYAASRRGSGVPARFSGSGSGTDFSLNIHPMEEDDTAMYFCQQSKEVPYTFGGGTNLEIR
notes: Murine anti-human PAD4 antibody; also called murine anti-human clone 13 antibody
Recombinant human PAD4 [3]
  IC50 (average), PAD4 citrullination of peptide …, RapidFire MS: 30 nM
Recombinant human PAD4 [4]
  IC50 of inhibition of PAD4 activity (% Activity against [AB Clone 13] nM): 10.1 nM
[5]
  Kd: < 0.0244 nM
  koff: < 1e-06 s⁻¹
  kon: 41100 M⁻¹ s⁻¹
Recombinant human PAD4 [6]
  Kd: 3.2 nM
  koff: 0.0011 s⁻¹
  kon: 350000 M⁻¹ s⁻¹

B3: clone 13 Fab (Fab, V domains shown)
VH: B2 VH
VL: DIVLTQSPTSLGVSPGQRATLSCRASENVNNYGIGFMNWFQQKPGQPPKLLIYAASRRGSGVPARFSGSGSGTDFSLNIHPMEEDDTAMYFCQQSKEVPYTFGGGTNLEIRR
notes: Heavy chain fragment with C-terminal His-tag; murine constant regions; also called Fab of clone 13; Fab13
N-His-TVMV-PAD4
  binding result: binds
